# B1: Hairpin Ribozyme (parent)
# chain: GUCCUCUUUCACGUGCGCGUGAAAGAGAGAAGUGAACCAGAGAAACACACGUUGUGGUAUAUUACCUGGUA
# Variants of: B1
# Test: self-cleavage, relative activity (ratio to wild type); higher = more cleavage; co-transcriptional
row,Variant,self-cleavage
1,GUCCUCUUUCACGCGCGCGUCAAAGAGAGAAGUGAACCAGAGAAACACACGUUGUGGUAUAUUACCUGGUA [U14C G21C],0.883
2,GUCCUCUUUCACGCGCGCGUGAAAGAGAGAAGUAAACCAGAGAAACACACGUUGUGGUAUAUUACCUGGUA [U14C G34A],0.988
3,GUCCUCUUUCACGCGCGCGUGAAAGAGAGAAGUUAACCAGAGAAACACACGUUGUGGUAUAUUACCUGGUA [U14C G34U],1.54
4,GUCCUCUUUCACGCGCGCGUGAAAGAGAGAAGUGAACCAGAGAACCACACGUUGUGGUAUAUUACCUGGUA [U14C A45C],0.206
5,GUCCUCUUUCACGCGCGCGUGAAAGAGAGAAGUGAACCAGAGAAGCACACGUUGUGGUAUAUUACCUGGUA [U14C A45G],0.0672
6,GUCCUCUUUCACGCGCGCGUGAAAGAGAGAAGUGAACCAGAGAAACACACGUUGUGGUCUAUUACCUGGUA [U14C A59C],0.0922
7,GUCCUCUUUCACGCGCGCGUGAAAGAGAGAAGUGAACCACAGAAACACACGUUGUGGUAUAUUACCUGGUA [U14C G40C],0.156
8,GUCCUCUUUCACGCGCGCGUGAAAGAGAGAAGUGAACCAUAGAAACACACGUUGUGGUAUAUUACCUGGUA [U14C G40U],0.188
9,GUCCUCUUUCACGCGCGCGUGAAAGAGAGAAGUGAACCAAAGAAACACACGUUGUGGUAUAUUACCUGGUA [U14C G40A],0.326
10,GUCCUCUUUCACGCGCGCGUGAAAGAGAGAAGUGAACCAGAGAAACACACGUUCUGGUAUAUUACCUGGUA [U14C G54C],0.397
11,GUCCUCUUUCACGCGCGCGUGAAAGAGAGAAGUGAACCAGAGACACACACGUUGUGGUAUAUUACCUGGUA [U14C A44C],0.241
12,GUCCUCUUUCACGCGCGCGUGAAAGAGAGAAGUGAACCAGAGAUACACACGUUGUGGUAUAUUACCUGGUA [U14C A44U],0.0783
13,GUCCUCUUUCACGCGCGGGUGAAAGAGAGAAGUGAACCAGAGAAACACACGUUGUGGUAUAUUACCUGGUA [U14C C18G],0.957
14,GUCCUCUUUCACGCGCGCGUGAAAGAGAGAAGUGAACCAGAGAAACACACGUUGUGGUAUUUUACCUGGUA [U14C A61U],0.293
15,GUCCUCUUUCACGCGCGCGUGAAAGAGAGAAGUGAACCAGAGAAACACACGUUGUGGUAUAUUGCCUGGUA [U14C A64G],0.568
16,GUCCUCUUUCACGCGAGCGUGAAAGAGAGAAGUGAACCAGAGAAACACACGUUGUGGUAUAUUACCUGGUA [U14C C16A],0.922
17,GUCCUCUUUCACGCGGGCGUGAAAGAGAGAAGUGAACCAGAGAAACACACGUUGUGGUAUAUUACCUGGUA [U14C C16G],0.821
18,GUCCUCUUUCACGCGCGCGUGAAAGAGAGAAGUGAACUAGAGAAACACACGUUGUGGUAUAUUACCUGGUA [U14C C38U],0.493
19,GUCCUCUUUCACGCGCGCGUGAAAGAGAGAAGUGAACCAGAGAAACACACGUUGUGGUAUAUUACCUUGUA [U14C G68U],0.13

row,Variant,self-cleavage
1,GUCCUCUUUCACGCGCGCGUGAAAGAGAGAAGUGAACCAGAGAAACACACGUUGUGGUAUAUUACCUAGUA [U14C G68A],0.234
2,GUCCUCUUUCACGCGCGCGUGAAAGAGAUAAGUGAACCAGAGAAACACACGUUGUGGUAUAUUACCUGGUA [U14C G29U],0.198
3,GUCCUCUUUCACGCGCGCGUGAAAUAGAGAAGUGAACCAGAGAAACACACGUUGUGGUAUAUUACCUGGUA [U14C G25U],0.762
4,GUCCUCUUUCACGCGCGCGUGAAAGAGAGAAGUGAACCAGAGAAACGCACGUUGUGGUAUAUUACCUGGUA [U14C A47G],0.118
5,GUCCUCUUUCACGCGCCCGUGAAAGAGAGAAGUGAACCAGAGAAACACACGUUGUGGUAUAUUACCUGGUA [U14C G17C],0.582
6,GUCCUCUUUCACGCGCGCGUGAAAGAGAGAAGUGAACCAGAGAAACACAUGUUGUGGUAUAUUACCUGGUA [U14C C50U],0.265
7,GUCCUCUUUCACGCGCGCGUGAAAGAGAGAAGUGAACCAGAGAAACACACCUUGUGGUAUAUUACCUGGUA [U14C G51C],0.586
8,GUCCUCUUUCACGCGCGCGUGAAAGAGAGAAGCGAACCAGAGAAACACACGUUGUGGUAUAUUACCUGGUA [U14C U33C],0.0775
9,GUCCUCUUUCACGCGCGCGUGAAAGAGAGAAGGGAACCAGAGAAACACACGUUGUGGUAUAUUACCUGGUA [U14C U33G],0.191
10,GUCCUCUUUCACGCGCGCGUGAAAGAGAGAAGUGAACCAGAGAAACACACGUUGUAGUAUAUUACCUGGUA [U14C G56A],0.143
11,GUCCUCUUUCACGCGCGCGUGAAAGACAGAAGUGAACCAGAGAAACACACGUUGUGGUAUAUUACCUGGUA [U14C G27C],0.078
12,GUCCUCUUUCACGCGCGCGUGAAAGAGAGAAGUGAACCAGAGAAACACACGUUGUGGUAUAUUACAUGGUA [U14C C66A],0.223
13,GUCCUCUUUCACGCGCGCAUGAAAGAGAGAAGUGAACCAGAGAAACACACGUUGUGGUAUAUUACCUGGUA [U14C G19A],0.612
14,GUCCUCUUUCACGCGCGCGUGAAAGAGAGAAGUGAACCAGAGAAACACACGUGGUGGUAUAUUACCUGGUA [U14C U53G],0.936
15,GUCCUCUUUCACGCGCGCGUGAAAGAGAGAAGUGAACCAGAGAAACACACGUAGUGGUAUAUUACCUGGUA [U14C U53A],1.18
16,GUCCUCUUUCACGCGCGCGUGAAAGAGAGAAGUGAACCAGAGAAACACACGUCGUGGUAUAUUACCUGGUA [U14C U53C],0.675
17,GUCCUCUUUCACGCGCGCGUGAAAGAGAGAAGUGAACCAGAGAAACACACGUUGUGCUAUAUUACCUGGUA [U14C G57C],0.0473
18,GUCCUCUUUCACGCGCGCGUGAAAGAGAGAAGUGAACCAGAGAAACACACGUUGUGAUAUAUUACCUGGUA [U14C G57A],0.215
19,GUCCUCUUUCACGCGCGCGUGAAAGAGAGAAGUGAACCAGAGAAACACACGUUGUGGUAUAUUACCUGCUA [U14C G69C],0.3
